The text below walks through data of patent publication US20220242939A1 (BIOARCTIC, published 2022).

The kon is a measure of how fast the partners come together. For orientation: koff means the rate constant with which the complex falls apart.

Numbering of substitutions follows the chain as printed. Non-standard residues stand in square brackets, D forms with d. No end group written: not given here. Ahx = NCCCCCC(=O)O

The labels stand for the following.
T1: L198 N-terminal neo-epitope peptide LAGQPL-Acp-C (SEQ ID NO:52) conjugated to BSA (human, not fully specified (residue 8); printed as LAGQPL-Acp-C; also: C-terminal Cys conjugated to BSA carrier)
T1 construct: BSA carrier; also called L198-BSA peptide
T1 peptide: LAGQPL[Ahx]C

T2: negative control peptide AATVGSLAGQPLQER-Acp-C (SEQ ID NO:53) conjugated to BSA (human, not fully specified (residue 17); printed as AATVGSLAGQPLQER-Acp-C; also: C-terminal Cys conjugated to BSA carrier)
T2 construct: BSA carrier; also called 192-206 BSA-conjugated peptide
T2 peptide: AATVGSLAGQPLQER[Ahx]C

B1: 23D5, recombinant IgG2c antibody (antibody, V domains shown)
VH: EVQLVESGGGLVKPGGSLKLSCSASGFTFSRYAMSWVRQSPEKRLEWVAEINSGGSYSFYSDTVTGRFTISRDNAKNTLFLEMSSLRSEDTAIYYCARQLSGTDYYGTDYWGQGTSVTVSS
VL: DVLMTQTPLSLPVSHGDQASISCRSSQSLLYSNGNTYLEWYLQKPGQSPKLLIYKVSNRFSGVPDRFSGSGSGTDFTLKISRVEAEDLGVYYCFQGSHVPYTFGGGTKLEIK
B2: 28F2, recombinant IgG2c antibody (antibody, V domains shown)
VH: QIQLVQSGPDLKKPGETVKISCKASGYTFTNYAMHWMKQAPGKALKWMGWINTYTGEPTFADDFKGRFAFSLETSASTAYLQINSLKNEDMATYFCAREGYYDRSHYFDYWGQGTTLTVSS
VL: B1 VL with H15L, Q27L, L30V, Y31H, S32G, N33D, F94L, V99I, Y101F, G105S
B3: 4E6, recombinant IgG2c antibody (antibody, V domains shown)
VH: EVQLVESGGDLVKPGGSLKLSCAASGFTFSSYAMSWVRQSPEKRLEWVAEISGSGSRDHYTDSVTGRFTVSRDNAKNTLYLEMSSLRSEDTAIYYCARQLTGTDYYGTDYWGQGTSVTVSS
VL: B1 VL with T7I, H15L, L29I, L30V, K44R, V99L
notes: also called recombinant anti-G200 antibody 4E6
B4: 7C7, recombinant IgG2c antibody (antibody, V domains shown)
VH: EVQLVESGGGLVKPGGSLRLSCAASGFTFSSFAMSWVRQSPERRLEWVAEISRGGGYAFYSDTVTGRFTISRDNARNTLFLEMGSLRSEDTAMYYCSRQLTGTDYYAMDYWGQGTSVTVSS
VL: B1 VL with M4L, P12F, H15L, L29I, L30V, S32T, H98Q, I111L
B5: 7B10, recombinant IgG2c antibody (antibody, V domains shown)
VH: AVQLVESGGGLVKPGRSLKLSCAASGFTFSSYAMSWVRQFPDKRLDWVAEISSGGGSTNYLDTVTGRFTISRDNAKNTLYLEMNSLRSEDTAMYYCARQLVGTDYYGTDYWGQGTSVTVSS
VL: B1 VL with H15L, S28N, L29I, L30V
notes: also called 7610
B6: 17G4, recombinant IgG2c antibody (antibody, V domains shown)
VH: B1 VH with S101T
VL: B1 VL

T4 sequence (P02649 19-317): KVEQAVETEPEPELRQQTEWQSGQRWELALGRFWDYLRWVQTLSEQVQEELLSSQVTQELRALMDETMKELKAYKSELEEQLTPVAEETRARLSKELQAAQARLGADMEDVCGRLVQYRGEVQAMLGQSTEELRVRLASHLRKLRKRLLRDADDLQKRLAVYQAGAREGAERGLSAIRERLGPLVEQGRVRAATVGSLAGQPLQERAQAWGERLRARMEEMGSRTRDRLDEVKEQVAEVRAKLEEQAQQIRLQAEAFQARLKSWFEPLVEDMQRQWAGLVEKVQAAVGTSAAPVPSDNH

The target in the first experiment is T3, recombinant C-terminal ApoE fragment G200-HIS (ApoE-G200-H299-10xHIS) (human, UniProt P02649 218-317).
T3 construct: also called G200-HIS fragment
T3 sequence (P02649 other isoform, or with tags, fused parts or gaps limits assumed): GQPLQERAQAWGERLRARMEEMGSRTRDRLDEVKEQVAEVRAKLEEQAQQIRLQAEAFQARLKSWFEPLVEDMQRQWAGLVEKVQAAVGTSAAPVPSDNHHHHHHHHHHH
The experiment is described as follows: SPR (Biacore 8K), G200-HIS amine-coupled on CM5, antibody as analyte, bivalent analyte fit (ka1).
Regarding B1, the kon came to 260000 M⁻¹ s⁻¹.
Same read-out and setting: the result for B2 reads 4.98e+06 M⁻¹ s⁻¹.
As for B3, the association rate constant (kon) came to 8.15e+07 M⁻¹ s⁻¹.
Turning to B4, the kon turned out to be 2.88e+06 M⁻¹ s⁻¹.
Regarding B5, the association rate constant (kon) is 1.2e+06 M⁻¹ s⁻¹.
Still for that read-out and setting: the result for B6 reads 8.73e+06 M⁻¹ s⁻¹.

For another experiment, the target named is T3, recombinant C-terminal ApoE fragment …. The experiment is described as follows: SPR (Biacore 8K), G200-HIS amine-coupled on CM5, antibody as analyte, bivalent analyte fit (kd1).
For B1, the koff came to 0.0105 s⁻¹.
For B2, the koff is 0.0035 s⁻¹.
Same read-out and setting: the figure for B3 is 0.006 s⁻¹.
Regarding B4, the koff came out at 0.0029 s⁻¹.
Take B5: the koff turned out to be 0.0038 s⁻¹.
Same read-out and setting: the result for B6 reads 0.0024 s⁻¹.

The target of a further experiment is T1, L198 N-terminal neo-epitope peptide …. Description: direct ELISA, target coated at 1 ug/ml, antibody in 3-fold dilutions from 500 ng/ml, OD 450 nm. The protocol:
(§1) Selectivity evaluation of recombinant antibodies by direct ELISA: The direct ELISA described below was used to evaluate the binding selectivity of the recombinant antibodies produced in Example 11.
(§2) The screening was performed according to standard ELISA protocols. Briefly, 1 μg/ml solutions of BSA-conjugated neo-epitope peptides, recombinant C-terminal ApoE fragment, negative control peptide and full-length ApoE were prepared by dilution in PBS. 50 μl/well were added to an ELISA half-area 96 well microtiter plate, the plate was sealed with adhesive sealer and incubated over night at 4° C. After discarding the solution, the plates were blocked with 150 μl/well of protein-free blocking solution (Pierce) for 1 h at room temperature with shake (900 rpm). The plates were washed four times with washing buffer containing 0.28 mM NaH₂PO₄, 2.5 mM Na₂HPO₄, 150 mM NaCl, 0.1% TWEEN®-20 and 0.0075% Kathon CG. Generated recombinant antibodies of interest were serially diluted 3-fold with a starting dilution at 0.5 μg/ml (mixed 1:1 with dilution buffer: PBS with 0.1% BSA and 0.05% TWEEN®-20). An anti-ApoE C-terminal antibody was used as a reference antibody (ApoE E-8 mouse monoclonal, cat. no. sc-393302; Santa Cruz Biotechnology). 50 μl/well were added into the ELISA plates and incubated for 2 h at room temperature with shake (900 rpm). The plates were washed four times as described previously. […] After another wash (as described previously), 50 μl/well of K-Blue® aqueous substrate (Neogen) were added, and the reaction was stopped after 5-15 min with 50 μl/well of 0.5 M […]. The optical density at 450 nm was read using an ELISA reader (Tecan).
With B1, the binding result is reported as “no binding (tested: 500 ng/ml)”.
Still for that read-out and setting: the entry for B2 is “no binding (tested: 500 ng/ml)”.
Regarding B3, the binding result is “no binding (tested: 500 ng/ml)”.
The same measure, in the same setting: the entry for B4 is “no binding (tested: 500 ng/ml)”; for B5 it is “no binding (tested: 500 ng/ml)”; for B6 it is “no binding (tested: 500 ng/ml)”.

Another experiment deals with T2, negative control peptide …. Described as above. The protocol: as §1, §2
In the case of B1, the binding result was “no binding (tested: 500 ng/ml)”.
Still for that read-out and setting: the entry for B2 is “no binding (tested: 500 ng/ml)”.
Same read-out and setting: the entry for B3 is “no binding (tested: 500 ng/ml)”; for B4 it is “no binding (tested: 500 ng/ml)”.
As to B5, the binding result was “no binding (tested: 500 ng/ml)”.
Regarding B6, the binding result is “no binding (tested: 500 ng/ml)”.

The target of a further experiment is T3, recombinant C-terminal ApoE fragment …. Description: BLI (Octet RED384), G200-HIS captured on anti-HIS biosensor, antibody as analyte, 1:2 bivalent analyte fit. The protocol: Selectivity evaluation and KD determination of recombinant antibodies by bio-layer interferometry: Binding interactions between the N-terminal neo-epitope peptide G200 (SEQ ID NO:50) conjugated to BSA (ligand) and the recombinant antibodies produced in Example 11 (analyte) were evaluated using an Octet RED384 instrument (ForteBio). All analyzed proteins were diluted in 1×Kinetics Buffer (ForteBio).
To analyze the antibody-target interaction and to determine the binding affinity of the recombinant antibodies for recombinant C-terminal ApoE fragment G200-HIS (SEQ ID NO:48), anti-HIS capture biosensors (HIS1K) were used. In the first step (loading step), HIS-tagged recombinant C-terminal ApoE fragment was captured onto the surface of the biosensor. Next, a concentration gradient of pure antibodies was prepared ranging from 150 nM to 2.5 nM in 2-fold serial dilutions. Subsequently, the HIS1K biosensors with ligand were dipped in wells containing diluted antibodies, and the association phase was monitored for 600 s. For monitoring the dissociation phase, the HIS1K biosensors with ligand were moved to a well containing 1× Kinetics Buffer and the dissociation was monitored for 1000 s. For evaluation of the kinetic experiments, the Octet Data Analysis software was used. All values collected from interaction analysis were blank subtracted, and a 1:2 binding kinetics global fit model (bivalent analyte) was used for the evaluation.
Selectivity evaluation and KD determination of recombinant antibodies by bio-layer interferometry: Binding interactions between the recombinant G200 C-terminal ApoE fragment (ligand) and recombinant antibodies (analyte) were evaluated by using an Octet RED384 instrument (ForteBio).
Background: BLI is a label-free optical method that tracks binding on a fibre tip over time.
With B1, the Kd stood at 5.2 nM.
Same read-out and setting: the result for B2 reads 9.7 nM; that for B3, 0.9 nM.
On to B4, for which the Kd was 1.9 nM.
Same read-out and setting: the result for B5 reads 0.8 nM; that for B6, 0.8 nM.

A further experiment addresses T4, full-length ApoE in human brain extract from Alzheimer's disease patients (human, UniProt P02649 19-317).
T4 construct: mature; Endogenous protein on Western blot or in solution (IP); also called ApoE full-length protein
The experiment is described as follows: Western blot of AD brain RIPA 2% SDS extract; recombinant antibody at 2 ug/ml as primary antibody.
Take B1: the binding result was “no binding (tested: 2 ug/ml (text))”.
Regarding B2, the binding result was “no binding (tested: 2 ug/ml (text))”.
For B3, the binding result is “no binding (tested: 2 ug/ml (text))”.
On the same count and under the same terms, the result for B4 reads “no binding (tested: 2 ug/ml (text))”.
B5: the binding result is given as “no binding (tested: 2 ug/ml (text))”.
The same measure, in the same setting: the result for B6 reads “no binding (tested: 2 ug/ml (text))”.
